From PMC7673040 (Nature Communications, 2020)

Target: human nascent polypeptide-associated complex (NAC), unlabeled (human, UniProt Q13765 1-215; P20290-2 1-162)
Assay: other fluorescence titration; competition: 1 nM RNC^BDP and 20 nM NAC^Cy3B pre-incubated, unlabeled NAC or NACmt added; FRET fit to Eq. (6); Assay buffer with 1 mg/mL BSA
Details: both partners purified

Row | Kd [nM] | Binder
1 | 0.5 | ribosome-nascent chain complex bearing the first ~90 amino acids of pPL(ssmt), labelled with BODIPY-FL on the nascent chain (complex, axial-trans-cyclooct-2-en-L-Lysine (TCOK) at an amber codon one residue upstream of the signal sequence, labelled with tetrazine-conjugated BODIPY-FL (BDP)) MDSKGSSQKGSKLLLRRVVSNLLLCQGVVSTPVCPNGPGNCQVSLRDLFDRAVMVSHYIHDLSSEMFNEFDKRYAQGKGFITMALNSCHTV
2 | 0.55 | ribosome-nascent chain complex bearing the first ~90 amino acids of pPL(ss), labelled with BODIPY-FL on the nascent chain (complex, axial-trans-cyclooct-2-en-L-Lysine (TCOK) at an amber codon one residue upstream of the signal sequence, labelled with tetrazine-conjugated BODIPY-FL (BDP)) MDSKGSSQKGSKLALALLLLLLALALCQGVVSTPVCPNGPGNCQVSLRDLFDRAVMVSHYIHDLSSEMFNEFDKRYAQGKGFITMALNSCHTV
